In the Immune Epitope Database (IEDB):

Assays:
[1] = molecular target: HLA-B*51:01; experiment: IEDB peptide-MHC binding, purified MHC/competitive/fluorescence; filed as Kd, often an IC50 or EC50 that approximates it; ≥ and ≤ were set here for values at or beyond the usual limits of such assays; conditions: source organism: Escherichia coli 536
[2] = molecular target: HLA-B*07:02; experiment: as above
[3] = molecular target: HLA-B*08:01; experiment: as above; conditions: source organism: Escherichia coli 536
[4] = molecular target: HLA-B*51:01; experiment: IEDB peptide-MHC binding, purified MHC/direct/fluorescence; filed as Kd, often an IC50 or EC50 that approximates it; ≥ and ≤ were set here for values at or beyond the usual limits of such assays; conditions: source organism: Encephalitozoon cuniculi GB-M1
[5] = molecular target: HLA-A*26:01; experiment: as above
[6] = molecular target: HLA-B*57:01; experiment: as above
[7] = molecular target: HLA-B*27:03; experiment: as above
[8] = molecular target: HLA-A*03:01; experiment: as above
[9] = molecular target: HLA-A*02:19; experiment: as above
[10] = molecular target: HLA-B*15:01; experiment: as above
[11] = molecular target: HLA-B*46:01; experiment: as above
[12] = molecular target: HLA-A*02:12; experiment: as above
[13] = molecular target: HLA-A*02:16; experiment: as above
[14] = molecular target: HLA-A*24:03; experiment: as above
[15] = molecular target: HLA-B*18:01; experiment: as above
[16] = molecular target: HLA-A*02:01; experiment: IEDB peptide-MHC binding, purified MHC/competitive/fluorescence; filed as Kd, often an IC50 or EC50 that approximates it; ≥ and ≤ were set here for values at or beyond the usual limits of such assays
[17] = molecular target: HLA-A*02:06; experiment: as above
[18] = molecular target: HLA-B*48:01; experiment: IEDB peptide-MHC binding, purified MHC/direct/fluorescence; filed as Kd, often an IC50 or EC50 that approximates it; ≥ and ≤ were set here for values at or beyond the usual limits of such assays
[19] = molecular target: HLA-B*58:01; experiment: as above
[20] = molecular target: HLA-A*11:01; experiment: as above
[21] = molecular target: HLA-A*31:01; experiment: as above
[22] = molecular target: HLA-A*01:01; experiment: as above
[23] = molecular target: HLA-B*08:02; experiment: as above
[24] = molecular target: HLA-B*40:01; experiment: as above
[25] = molecular target: HLA-B*27:05; experiment: as above
[26] = molecular target: HLA-B*39:01; experiment: as above
[27] = molecular target: HLA-B*15:17; experiment: as above
[28] = molecular target: HLA-A*69:01; experiment: as above
[29] = molecular target: HLA-A*02:01; experiment: as above; conditions: source organism: Yersinia enterocolitica subsp. enterocolitica 8081
[30] = molecular target: HLA-A*02:11; experiment: as above; conditions: source organism: Yersinia enterocolitica subsp. enterocolitica 8081
[31] = molecular target: HLA-A*02:03; experiment: as above; conditions: source organism: Yersinia enterocolitica subsp. enterocolitica 8081
[32] = molecular target: HLA-A*68:02; experiment: as above; conditions: source organism: Yersinia enterocolitica subsp. enterocolitica 8081
[33] = molecular target: HLA-A*01:01; experiment: IEDB peptide-MHC binding, purified MHC/competitive/fluorescence; filed as Kd, often an IC50 or EC50 that approximates it; ≥ and ≤ were set here for values at or beyond the usual limits of such assays; conditions: source organism: Yersinia pestis Nepal516
[34] = molecular target: HLA-A*03:01; experiment: as above; conditions: source organism: Yersinia pestis Nepal516
[35] = molecular target: HLA-B*15:01; experiment: as above; conditions: source organism: Yersinia pestis Nepal516
[36] = molecular target: HLA-A*69:01; experiment: as above; conditions: source organism: Vaccinia virus Copenhagen
[37] = source organism: Encephalitozoon cuniculi GB-M1
[38] = source organism: Burkholderia mallei NCTC 10229
[39] = source organism: Burkholderia mallei
[40] = source organism: Burkholderia mallei ATCC 23344
[41] = source organism: Yersinia enterocolitica subsp. enterocolitica 8081
[42] = source organism: Mycobacterium tuberculosis
[43] = source organism: Vaccinia virus Copenhagen

## HPYKIPATV
[1]
  Kd: 0.309 µM
[2]; source organism: Escherichia coli 536
  Kd: 0.197 µM
[3]
  Kd: 0.398 µM

## HPYVFCALL
[4]
  Kd: 2.92 µM
[5]; [37]
  Kd: ≥ 20 µM
[6]; [37]
  Kd: ≥ 20 µM
[7]; [37]
  Kd: ≥ 20 µM
[8]; [37]
  Kd: ≥ 20 µM
[9]; [37]
  Kd: ≥ 20 µM
[10]; [37]
  Kd: ≥ 20 µM
[11]; [37]
  Kd: ≥ 20 µM
[12]; [37]
  Kd: ≥ 20 µM
[13]; [37]
  Kd: ≥ 20 µM
[14]; [37]
  Kd: ≥ 20 µM
[15]; [37]
  Kd: ≥ 20 µM

## IYDFYNAEY
[16]; [38]
  Kd: 0.138 µM
[17]; [38]
  Kd: 0.0534 µM
[18]; [39]
  Kd: ≥ 20 µM
[19]; [39]
  Kd: ≥ 20 µM
[20]; [39]
  Kd: ≥ 20 µM
[5]; [40]
  Kd: 0.091 µM
[21]; [39]
  Kd: ≥ 20 µM
[6]; [39]
  Kd: ≥ 20 µM
[22]; [39]
  Kd: 1.76 µM
[8]; [39]
  Kd: ≥ 20 µM
[23]; [40]
  Kd: ≥ 20 µM
[10]; [39]
  Kd: ≥ 20 µM
[24]; [39]
  Kd: ≥ 20 µM
[25]; [39]
  Kd: ≥ 20 µM
[26]; [40]
  Kd: ≥ 20 µM
[27]; [39]
  Kd: 5.09 µM
[28]; [39]
  Kd: ≥ 20 µM

## KSRQGDTKV
[29]
  Kd: ≥ 20 µM
[5]; [41]
  Kd: ≥ 20 µM
[30]
  Kd: ≥ 20 µM
[6]; [41]
  Kd: ≥ 20 µM
[31]
  Kd: ≥ 20 µM
[7]; [41]
  Kd: ≥ 20 µM
[32]
  Kd: ≥ 20 µM
[8]; [41]
  Kd: ≥ 20 µM
[9]; [41]
  Kd: ≥ 20 µM
[10]; [41]
  Kd: ≥ 20 µM
[11]; [41]
  Kd: ≥ 20 µM
[12]; [41]
  Kd: ≥ 20 µM
[13]; [41]
  Kd: ≥ 20 µM
[14]; [41]
  Kd: ≥ 20 µM
[26]; [41]
  Kd: ≥ 20 µM
[27]; [41]
  Kd: 0.28 µM
[28]; [41]
  Kd: ≥ 20 µM
[15]; [41]
  Kd: ≥ 20 µM

## LPSWLLAPV
[2]; source organism: Salmonella enterica subsp. enterica serovar Typhi
  Kd: 0.066 µM

## NTLGITHLY
[33]
  Kd: 0.0448 µM
[34]
  Kd: ≥ 20 µM
[35]
  Kd: 3.02 µM

## SIYYTLVRM
[5]; [42]
  Kd: ≥ 20 µM
[6]; [42]
  Kd: ≥ 20 µM
[7]; [42]
  Kd: ≥ 20 µM
[9]; [42]
  Kd: ≥ 20 µM
[10]; [42]
  Kd: ≥ 20 µM
[11]; [42]
  Kd: ≥ 20 µM
[12]; [42]
  Kd: ≥ 20 µM
[26]; [42]
  Kd: ≥ 20 µM
[27]; [42]
  Kd: 0.256 µM
[15]; [42]
  Kd: ≥ 20 µM

## YKDANISMY
[16]; [43]
  Kd: 0.113 µM
[17]; [43]
  Kd: 0.107 µM
[36]
  Kd: 1.04 µM
[18]; source organism: Cowpox virus
  Kd: ≥ 20 µM
[19]; source organism: Cowpox virus
  Kd: ≥ 20 µM
[20]; source organism: Cowpox virus
  Kd: ≥ 20 µM
[5]; source organism: Variola virus
  Kd: ≥ 20 µM
[21]; source organism: Cowpox virus
  Kd: ≥ 20 µM
[6]; source organism: Cowpox virus
  Kd: ≥ 20 µM
[22]; source organism: Cowpox virus
  Kd: ≥ 20 µM
[8]; source organism: Cowpox virus
  Kd: ≥ 20 µM
[23]; source organism: Variola virus
  Kd: ≥ 20 µM
[10]; source organism: Cowpox virus
  Kd: ≥ 20 µM
[11]; source organism: Cowpox virus
  Kd: ≥ 20 µM
[24]; source organism: Cowpox virus
  Kd: ≥ 20 µM
[25]; source organism: Cowpox virus
  Kd: ≥ 20 µM
[27]; source organism: Cowpox virus
  Kd: ≥ 20 µM
